We go through 2 molecules from patent publication US20220153792A1 (INSTITUTE FOR RESEARCH IN BIOMEDICINE, published 2022).

The experiment concerns the target T1, histidine tagged HMGB1 (High-Mobility-Group-Protein 1) (Homo sapiens (Human), UniProt P09429 1-215, limits assumed, labeled with the his-tag specific NT-647 dye).
T1 construct: also called high-mobility protein box 1; not shown: histidine tag
T1 sequence: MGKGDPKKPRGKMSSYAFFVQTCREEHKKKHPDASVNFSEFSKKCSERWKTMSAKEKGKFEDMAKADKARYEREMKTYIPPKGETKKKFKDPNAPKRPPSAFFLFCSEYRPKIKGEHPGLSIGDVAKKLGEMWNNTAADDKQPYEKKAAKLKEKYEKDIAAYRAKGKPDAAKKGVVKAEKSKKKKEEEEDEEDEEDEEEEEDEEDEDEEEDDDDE
Description: MST, NT-647-labelled His-tagged HMGB1, peptide titrated.

In the case of GYHYE (First five residues of HBP08 (GYHYE)) [Pentapept-1], the binding result is on record as “no binding (tested: highest peptide concentration 500 µM)”.

ERWIH (Last five residues of HBP08 (ERWIH)) [Pentapept-2]: binding was put at a Kd of 200 µM.
